Measurements as given in patent US20110223176A1 (AbbVie / Abbott, published 2011).

T1: human BSG2 (basigin isoform 2) on the cell surface (human, UniProt P35613 140-385)
T1 sequence: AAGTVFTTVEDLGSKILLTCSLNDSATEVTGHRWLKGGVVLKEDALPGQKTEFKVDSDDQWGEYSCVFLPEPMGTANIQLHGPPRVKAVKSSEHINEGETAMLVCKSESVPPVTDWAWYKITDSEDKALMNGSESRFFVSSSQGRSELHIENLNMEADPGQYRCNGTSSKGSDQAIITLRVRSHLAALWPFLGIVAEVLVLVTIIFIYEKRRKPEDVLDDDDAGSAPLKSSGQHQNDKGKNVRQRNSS

B1: chimeric antibody 6A11-3A3 (human IgG1 constant regions) (antibody, V domains shown)
VH: EVKLEESGGGLVQPGGSMKLSCVASGFTFSNFWMDWVRQSPEKGLEWIAGIRLKSYNYATHYAESVKGRFTISRDDSKSSVYLQMNNLRAEDTGIYYCTDWDGAYWGQGTLVTVSA
VL: DIVMTQSHKFMSTSVGDRVSITCKASQDVSTDVAWYQQKPGQSPKLLIYSASYRYTGVPDRFTGSGSGTDFTFTISSVQAEDLAVYYCQQHYSTPFTFGSGTKLEIK
B2: humanized 6A11-3A3 antibody h3A3-8 (VH.1/VL.1a) (antibody, V domains shown)
VH: EVQLVESGGGLVQPGGSLRLSCAASGFTFSNFWMDWVRQAPGKGLEWVGGIRLKSYNYATHYAESVKGRFTISRDDSKNTAYLQMNSLRAEDTAVYYCTRWDGAYWGQGTLVTVSS
VL: DIQMTQSPSSLSASVGDRVTITCKASQDVSTDVAWYQQKPGKSPKLLIYSASYRYTGVPSRFSGSGSGTDFTLTISSLQPEDIATYYCQQHYSTPFTFGQGTKLEIK
B3: humanized 6A11-3A3 antibody h3A3-12 (VH.1a/VL.1b) (antibody, IgG1, V domains shown)
VH: EVQLVESGGGLVQPGGSLRLSCAASGFTFSNFWMDWVRQAPGKGLEWIAGIRLKSYNYATHYAESVKGRFTISRDDSKSTVYLQMNSLRAEDTAVYYCTDWDGAYWGQGTLVTVSS
VL: DIVMTQSPSSLSASVGDRVTITCKASQDVSTDVAWYQQKPGKSPKLLIYSASYRYTGVPSRFSGSGSGTDFTLTISSLQPEDIATYYCQQHYSTPFTFGQGTKLEIK
notes: IgG1
B4: humanized 6A11-3A3 antibody h3A3-6 (VH.1a/VL.1) (antibody, IgG1, V domains shown)
VH: EVQLVESGGGLVQPGGSLRLSCAASGFTFSNFWMDWVRQAPGKGLEWIAGIRLKSYNYATHYAESVKGRFTISRDDSKSTVYLQMNSLRAEDTAVYYCTDWDGAYWGQGTLVTVSS
VL: DIQMTQSPSSLSASVGDRVTITCKASQDVSTDVAWYQQKPGKAPKLLIYSASYRYTGVPSRFSGSGSGTDFTLTISSLQPEDIATYYCQQHYSTPFTFGQGTKLEIK
notes: IgG1
B5: humanized 6A11-3A3 antibody h3A3-9 (VH.1a/VL.1a) (antibody, V domains shown)
VH: EVQLVESGGGLVQPGGSLRLSCAASGFTFSNFWMDWVRQAPGKGLEWIAGIRLKSYNYATHYAESVKGRFTISRDDSKSTVYLQMNSLRAEDTAVYYCTDWDGAYWGQGTLVTVSS
VL: DIQMTQSPSSLSASVGDRVTITCKASQDVSTDVAWYQQKPGKSPKLLIYSASYRYTGVPSRFSGSGSGTDFTLTISSLQPEDIATYYCQQHYSTPFTFGQGTKLEIK
B6: humanized 6A11-3A3 antibody h3A3-11 (VH.1/VL.1b) (antibody, V domains shown)
VH: EVQLVESGGGLVQPGGSLRLSCAASGFTFSNFWMDWVRQAPGKGLEWVGGIRLKSYNYATHYAESVKGRFTISRDDSKNTAYLQMNSLRAEDTAVYYCTRWDGAYWGQGTLVTVSS
VL: DIVMTQSPSSLSASVGDRVTITCKASQDVSTDVAWYQQKPGKSPKLLIYSASYRYTGVPSRFSGSGSGTDFTLTISSLQPEDIATYYCQQHYSTPFTFGQGTKLEIK
B7: humanized 6A11-3A3 antibody h3A3-5 (VH.1/VL.1) (antibody, V domains shown)
VH: EVQLVESGGGLVQPGGSLRLSCAASGFTFSNFWMDWVRQAPGKGLEWVGGIRLKSYNYATHYAESVKGRFTISRDDSKNTAYLQMNSLRAEDTAVYYCTRWDGAYWGQGTLVTVSS
VL: DIQMTQSPSSLSASVGDRVTITCKASQDVSTDVAWYQQKPGKAPKLLIYSASYRYTGVPSRFSGSGSGTDFTLTISSLQPEDIATYYCQQHYSTPFTFGQGTKLEIK
B8: mouse anti-human BSG2 antibody 1F4-2C1 with mouse IgG2a isotype (antibody, V domains shown)
VH: EVKLEESGGGLVQPGGSMKLSCVASGFTFSNFWMDWVRQSPEKGLEWVAEIRLKSTNYATHYAESVKGRFTISRDDSKSSVYLQMNNLRAEDTGIYYCTATSTGYWGQGTTLTVSS
VL: SIVMTQSPKILLVSAGDRVTITCKASQSVSNDVAWYQQKPGQSPKLLIYYASNRYTGVPDRFTGSGYGTDFTFTISTVQAEDLAVYFCQQDYSSPYTFGGGTKLEIK

Experiments:
[1] = target: T1, human BSG2 (basigin isoform 2) on the …; assay: cell-based or functional assay
[2] = target: T1, human BSG2 (basigin isoform 2) on the …; assay: cell-based or functional assay; remark: listed apart in the source
[3] = target: T1, human BSG2 (basigin isoform 2) on the …; assay: cell-based ECL (MSD) binding on cells expressing human BSG2
Procedure: Cells were plated at 25,000 cells/well in 25 μl PBS using 96 well MSD high binding plates (MSD, catalogue no. L11XB-3), and incubated at 37° C. for 1 hour. 25 μl/well of blocking solution (30% serum in PBS) was added to the plates for 30 minutes at room temperature with mild agitation. Plates were then incubated with 25 μl/well of BSG2 antibodies (10 μg/ml) diluted in assay buffer (10% serum in PBS) for 1 hour at room temperature with mild agitation, and then washed 3× with PBS. Goat anti-mouse or anti-human IgG sulfotag was added at 1 μg/ml for 1 hour with mild agitation, and plates were washed 3× with PBS. After the final wash, plates were incubated with 2×MSD surfactant-free read buffer (catalogue no. R92TD-2) and the signal was detected on a MSD SECTOR Imager 6000. Data were analyzed using Graphpad Prism software and EC₅₀ values were reported.
Select humanized variants were also tested for their functionality using ADCC and cell viability assays (described in Examples 1.6 and 1.7).

[4] = target: T1, human BSG2 (basigin isoform 2) on the …; assay: receptor binding assay, Eu-labeled antibody on cells expressing human BSG2
Procedure: Cell lines expressing BSG2 were harvested and washed once in assay buffer (PBS, 0.1% BSA, 0.02% Na Azide, 10 mM EDTA) and resuspended to 5×10⁶ cells per mL. Serial 1:2 dilutions of ⁺³Eu-labeled anti-BSG2 antibody stock in assay buffer were made for final concentrations ranging from 1.6×10⁻⁸-7.7×10⁻¹² M, and a 4 mg/mL solution of unlabeled anti-BSG2 antibody was also prepared. To 96 well round bottom plates, 25 μl of ⁺³Eu-labeled antibody dilutions were added to 25 μl buffer (total counts), or 25 μl of unlabeled antibody were added to 25 μl buffer (background counts). 50 μl of cells at 2.5×10⁵ cells per well were then added to all samples, mixed gently, and incubated on ice for 1 hour. Cell bound antibody was then separated from unbound antibody by transferring 20 μL of the reaction mixture to Acrowell 96 well filter plates (Pall PN 5020), centrifuged for 5 min (2200 rpm), washed 3× with 150 μL cold assay buffer, and centrifuged for 5 min. Signal was determined by incubating samples with 150 μL/well of enhancement buffer and read using Envision. The specific counts were determined by subtracting the background counts (cells+labeled antibody+excess cold antibody) from the corresponding total counts (cells+labeled antibody) for each antibody concentration. The labeled antibody concentration versus total counts was analyzed using Graphpad Prism 4 to calculate Kd and Bmax values.

Binder	ADCC assay (EC50 ng/ml of % specific lysis), HepG2 hepatocellular [2]	Cross-linking assay (% viability, Cmax: 125 ng/ml), MiaPaCa pancreatic cells [2]	EC50 [3]	further results
B1	12.5 ng/mL	55.5 % viability		ADCC assay (EC50 ng/ml of % specific lysis), HepG2 hepatocellular cancer cells [1]: 7.3 ng/mL
B2			6.9 nM	
B3	9.3 ng/mL	48.8 % viability	0.96 nM	Kd [4]: 2.3 nM
B4	16.4 ng/mL	47.9 % viability	2.05 nM	Kd [4]: 5.2 nM
B5			1.35 nM	
B6			> 100 nM	
B7			> 100 nM	
B8				CDC assay (% killing at 10 µg/ml Ab), MiaPaCa-2 pancreatic cancer cells [1]: 87 % killing
